Source: PMC9418005 (Nature Microbiology, 2022)

B1: P2G3 LS human IgG1 monoclonal antibody (antibody, V domains shown)
VH: EVQLVESGGGLVQPGRSLRLSCAASGFRFDDYALHWVRQAPEKGLEWVSGISWNSNNIGYAESVKGRFTISRDTAKKSLYLQMNDLRAEDTALYYCVKDRHYDSSGYFVNGFDIWGQGTLVTVSA
VL: DIQLTQSPSFLSASVGDRVTVTCRASQGISSYVAWYQQKAGKAPTLLIYTASTLQSGVPSRFSGSGSGTEFTLTISSLQPEDFATYYCQQLHSYPVTFGQGTRLDIE
B2: P5C3 LS monoclonal antibody (antibody, V domains shown)
VH: QMQLVQSGPEVKKPGTSVKVSCKASGFTFTSSAVQWVRQARGQRLEWIGWIVVGSGNTDYAQQFQERVTITRDMSTSTAYMELSSLGSEDTAVYYCAAPNCSGGSCYDGFDLWGQGTMVTVSS
VL: EIVLTQSPGTLSLSPGERATLSCRGSQSVRSSYLGWYQQKPGQAPRLLIYGASSRATGIPDRFSGSGSGTDFTLTISRLEPEDFAVYYCQQYGSSPWTFGQGTKVEIK

Assays:
[1] = target: T1, original 2019-nCoV spike trimer (SARS-CoV-2 original 2019-nCoV …, UniProt P0DTC2, 2 prolines (P986–P987) | residues 682–685 mutated to GSAS); assay: Luminex bead-based binding assay; settings: both partners purified
[2] = target: Alpha (B.1.1.7) variant spike trimer (SARS-CoV-2 Alpha (B.1.1.7), 2 prolines (P986–P987) | residues 682–685 mutated to GSAS); assay: cell-based or functional assay
[3] = target: D614G mutant spike trimer (SARS-CoV-2 2019-nCoV D614G, D614G | 2 prolines (P986–P987) | residues 682–685 mutated to GSAS); assay: cell-based or functional assay
[4] = target: Beta (B.1.351) variant spike trimer (SARS-CoV-2 Beta (B.1.351), 2 prolines (P986–P987) | residues 682–685 mutated to GSAS); assay: cell-based or functional assay
[5] = target: Delta (B.1.617.2) variant spike trimer (SARS-CoV-2 Delta (B.1.617.2), 2 prolines (P986–P987) | residues 682–685 mutated to GSAS); assay: cell-based or functional assay
[6] = target: Gamma (P.1) variant spike trimer (SARS-CoV-2 Gamma (P.1), 2 prolines (P986–P987) | residues 682–685 mutated to GSAS); assay: cell-based or functional assay
[7] = target: T1, original 2019-nCoV spike trimer; assay: Luminex spike-ACE2 surrogate neutralization assay; settings: both partners purified

| Binder | binding result [1] | IC80, live SARS-CoV-2 cytopathic effect neutralization assay, Vero E6 cells [2] | IC80, live SARS-CoV-2 cytopathic effect neutralization assay, Vero E6 cells [3] | IC80, live SARS-CoV-2 cytopathic effect neutralization assay, Vero E6 cells [4] | IC80, live SARS-CoV-2 cytopathic effect neutralization assay, Vero E6 cells [5] | IC80, live SARS-CoV-2 cytopathic effect neutralization assay, Vero E6 cells [6] | binding result [7] |
| --- | --- | --- | --- | --- | --- | --- | --- |
| B1 | binds | 0.01 µg/mL | 0.028 µg/mL | 0.017 µg/mL | 0.024 µg/mL | 0.021 µg/mL |  |
| B2 |  |  |  |  |  |  | binds |
